According to article PMC12013513, “Anillin mediates unilateral furrowing during cytokinesis by limiting RhoA binding to its effectors” (The Journal of Cell Biology, 2025):

B1: 10xHis-RHO-1^WT (wild type RHO-1, 1-188 AA) (domain or fragment)
chain: not shown
notes: RHO-1 (RhoA in humans), C. elegans, residues 1-188 (without the CAAX motif), amplified from cDNA; Cloned into pET-19b; also called His-tagged RHO-1; RhoA; source: E. coli BL21 (DE3), purified (Ni-NTA)
B2: 10xHis-RHO-1^Q63L (constitutively active RHO-1, 1-188 AA) (domain or fragment)
chain: not shown
notes: RHO-1 (RhoA in humans), C. elegans, residues 1-188, with Q63L made by site-directed mutagenesis of the wild type construct; Cloned into pET-19b; source: E. coli BL21 (DE3), purified (Ni-NTA)

How the values were obtained:
[1] = molecular target: T1, GST-ANI-1^C-term (681-1159 AA) (C. elegans, UniProt Q9XTT4 681-1159); experiment: pull-down; ~4 μg GST-ANI-1 fragment on Glutathione Sepharose beads mixed with ~4 μg purified 10xHis-RHO-1 in 300 μl binding buffer (20 mM Tris pH 7.4, 150 mM NaCl, 5 mM MgCl2, 0.1% Triton X-100, 1 mM DTT) with 1 mM GTP, 4°C, 1.5 h; bound RHO-1 detected by anti-His immunoblot; conditions: both partners purified
T1 construct: ANI-1 (anillin homolog), C. elegans, residues 681-1159 comprising the RBD, C2 region and PH domain; Cloned into pGEX-4T; used on the beads directly in the pull-down; also called GST-tagged C-terminus of ANI-1; anillin C-terminus; source: E. coli BL21 (DE3), purified on Glutathione Sepharose 4B beads
T1 sequence (looked up): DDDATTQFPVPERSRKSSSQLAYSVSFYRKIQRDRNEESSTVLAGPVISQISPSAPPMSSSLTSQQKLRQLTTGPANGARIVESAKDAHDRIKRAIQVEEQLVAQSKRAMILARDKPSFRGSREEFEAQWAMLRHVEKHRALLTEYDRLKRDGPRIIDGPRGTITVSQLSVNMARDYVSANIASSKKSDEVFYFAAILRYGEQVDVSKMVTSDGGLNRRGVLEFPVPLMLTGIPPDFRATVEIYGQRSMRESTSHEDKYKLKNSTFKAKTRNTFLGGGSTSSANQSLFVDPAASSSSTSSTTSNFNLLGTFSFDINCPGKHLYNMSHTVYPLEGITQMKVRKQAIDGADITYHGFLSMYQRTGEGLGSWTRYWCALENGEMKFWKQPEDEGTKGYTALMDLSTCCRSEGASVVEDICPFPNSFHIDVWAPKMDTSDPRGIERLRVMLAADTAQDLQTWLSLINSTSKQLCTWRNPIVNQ

[2] = molecular target: T2, GST-ANI-1^Link+C-term (460-1159 AA) (C. elegans, UniProt Q9XTT4 460-1159); experiment: as above; conditions: both partners purified
T2 construct: ANI-1 (anillin homolog), C. elegans, residues 460-1159: linker region, RBD, C2 region and PH domain; Cloned into pGEX-4T; used on the beads directly in the pull-down; also called protein consisting of the linker region and C-terminus; source: E. coli BL21 (DE3), purified on Glutathione Sepharose 4B beads
T2 sequence (looked up): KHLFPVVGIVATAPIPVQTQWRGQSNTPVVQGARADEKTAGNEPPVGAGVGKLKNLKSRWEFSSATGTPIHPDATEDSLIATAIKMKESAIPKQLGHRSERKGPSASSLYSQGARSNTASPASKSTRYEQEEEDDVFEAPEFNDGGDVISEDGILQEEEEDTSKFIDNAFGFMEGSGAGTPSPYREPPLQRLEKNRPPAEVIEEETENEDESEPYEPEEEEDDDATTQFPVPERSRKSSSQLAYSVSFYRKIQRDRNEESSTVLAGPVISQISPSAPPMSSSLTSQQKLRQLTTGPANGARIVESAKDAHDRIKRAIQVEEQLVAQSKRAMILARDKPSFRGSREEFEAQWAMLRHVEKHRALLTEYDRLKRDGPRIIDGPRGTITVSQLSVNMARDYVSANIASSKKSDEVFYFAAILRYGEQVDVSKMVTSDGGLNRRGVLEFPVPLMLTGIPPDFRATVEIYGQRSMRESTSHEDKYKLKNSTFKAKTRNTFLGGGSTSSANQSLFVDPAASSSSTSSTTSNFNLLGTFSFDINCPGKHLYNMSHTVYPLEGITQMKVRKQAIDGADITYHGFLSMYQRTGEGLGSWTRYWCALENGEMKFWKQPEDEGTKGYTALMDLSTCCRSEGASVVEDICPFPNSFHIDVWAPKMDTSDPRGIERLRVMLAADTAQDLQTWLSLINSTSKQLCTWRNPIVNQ

Row | Binder | binding result [1] | binding result [2]
1 | B1 | binds | 
2 | B2 | binds | binds
